Laboratory results from PMC10183829, “Shuffled ATG8 interacting motifs form an ancestral bridge between UFMylation and autophagy” (The EMBO Journal, 2023).

Columns and labels:
HsUFM1 = assay: Isothermal titration calorimetry, HsUFM1 titrated with HsC53wt; assay type: binding, Homo sapiens; conditions: 40 μM HsUFM1 in cell, 300 or 550 μM HsC53wt in syringe
Protocol: (§1) All experiments were carried out at 25°C in 50 mM sodium phosphate buffer pH 7.0, 100 mM NaCl, using the PEAQ‐ITC Automated (Malvern Panalytical Ltd). For protein–protein interactions, the calorimetric cell was filled with either GABARAP or HsUFM1 and titrated with either HsC53 wt, HsC53 sAIM, HsC53 cAIM, or HsUBA5 LIR. A single injection of 0.4 μl of HsC53 or AtC53 IDRs (not taken into account) was followed by 18 injections of 2 μl each. Injections were made at 150‐s intervals with a duration of 4 s and a stirring speed of 750 rpm. The reference power was set to 10 μcal/s; the feedback mode was set to high. The raw titration data were integrated with NITPIC (Keller et al, [2012]), globally fitted with SEDPHAT (Zhao et al, [2015]), and plotted with GUSSI (Brautigam, [2015]).

[1] = test system: HsFIP200 Claw domain (CD); assay: Microscopy-based on-bead protein-protein interaction assay, GST-FIP200 CD beads; assay type: binding, Homo sapiens; conditions: 1 μM HsC53 variant, 2 independent replicates containing 2 technical replicates
Protocol: (§2) Glutathione‐Sepharose 4B bead slurry (Cytiva, average diameter 90 μm) was washed and diluted 10 times in HEPES buffer (25 mM HEPES pH 7.5, 150 mM NaCl, 1 mM DTT). The beads were then incubated for 30 min at 4°C (16 rpm horizontal rotation) with GST‐tagged bait proteins (2 μM of GST, GST‐FIP200 CD, GST‐ATG8A, GST‐GABARAP, GST‐AtUFM1, and GST‐HsUFM1). The beads were washed five times in 10 times the bead volume of HEPES buffer. The buffer was removed, and the beads were resuspended 1:20 in HEPES buffer. 10 μl of diluted beads was mixed with 20 μl of mCherry‐tagged binding partner at a concentration of 1.5 μM (0.5 μl bead slurry and 1 μM binding partner final concentrations) with or without competitor, as stated in the relative experiment. […]
(§3) From images acquired from a Zeiss LSM700 confocal microscope, the quantification of fluorescence was performed in ImageJ (Schindelin et al, [2012]) by drawing a line across each bead and taking the maximum gray value along the line. The maximum gray value for any given pixel represents the fluorescence intensity.
(§4) For images acquired from a Zeiss LSM800 confocal microscope, we used a custom Fiji Macro. […] In the end, the mean fluorescent intensities were exported out and used for quantification.
(§5) For each method, the fluorescence intensity was normalized against the mean of the control condition.

GST-ATG8A = assay: Microscopy-based on-bead protein-protein interaction assay, GST-ATG8A beads; assay type: binding, Arabidopsis thaliana; conditions: 1 μM mCherry-tagged C53 (AtC53 variants per Appendix Fig S10A); normalized fluorescence; mean average; 3 replicates
Protocol: as §2, §3, §4, §5

GST-GABARAP = assay: Microscopy-based on-bead protein-protein interaction assay, GST-GABARAP beads; assay type: binding, human; conditions: 1 μM mCherry-tagged C53 (HsC53 variants per Appendix Fig S10B); normalized fluorescence; mean average; 3 replicates
Protocol: as §2, §3, §4, §5

GABARAP = assay: Isothermal titration calorimetry, GABARAP titrated with HsC53 variants; assay type: binding, human; conditions: ITC, 25°C, 50 mM sodium phosphate pH 7.0, 100 mM NaCl; GABARAP 40 or 70 μM in cell; global analysis of 5 titrations, hetero-association model A + B; read-out: KD, best-fit value (ITC, GABARAP)
Protocol: as §1

[2] = test system: GST-HsUFM1 / mCh-HsC53 interaction; assay: On-bead competition of the HsUFM1-HsC53 interaction; assay type: binding, Homo sapiens; conditions: 1 μM HsC53; cAIM peptide 0-100 μM; UBA5 LIR peptide or GABARAP 100 μM
Protocol: as §2, §3, §4, §5

B1: HsC53^wt: recombinant Homo sapiens C53 (CDK5RAP3), wild type (protein)
chain: MEDHQHVPIDIQTSKLLDWLVDRRHCSLKWQSLVLTIREKINAAIQDMPESEEIAQLLSGSYIHYFHCLRILDLLKGTEASTKNIFGRYSSQRMKDWQEIIALYEKDNTYLVELSSLLVRNVNYEIPSLKKQIAKCQQLQQEYSRKEEECQAGAAEMREQFYHSCKQYGITGENVRGELLALVKDLPSQLAEIGAAAQQSLGEAIDVYQASVGFVCESPTEQVLPMLRFVQKRGNSTVYEWRTGTEPSVVERPHLEELPEQVAEDAIDWGDFGVEAVSEGTDSGISAEAAGIDWGIFPESDSKDPGGDGIDWGDDAVALQITVLEAGTQAPEGVARGPDALTLLEYTETRNQFLDELMELEIFLAQRAVELSEEADVLSVSQFQLAPAILQGQTKEKMVTMVSVLEDLIGKLTSLQLQHLFMILASPRYVDRVTEFLQQKLKQSQLLALKKELMVQKQQEALEEQAALEPKLDLLLEKTKELQKLIEADISKRYSGRPVNLMGTSL
modifications: left off: His6, N-terminal, state not stated
notes: recombinant Homo sapiens C53 (CDK5RAP3), wild type
B1 was tested, and the “Binding to UFM1 by ITC (in words)” value (HsUFM1) was “did not detect appreciable binding”.

B2: HsC53^cAIM: HsC53^(IDWG267WDGI, IDWG292WDGI, IDWG310WDGI) (protein)
chain: MEDHQHVPIDIQTSKLLDWLVDRRHCSLKWQSLVLTIREKINAAIQDMPESEEIAQLLSGSYIHYFHCLRILDLLKGTEASTKNIFGRYSSQRMKDWQEIIALYEKDNTYLVELSSLLVRNVNYEIPSLKKQIAKCQQLQQEYSRKEEECQAGAAEMREQFYHSCKQYGITGENVRGELLALVKDLPSQLAEIGAAAQQSLGEAIDVYQASVGFVCESPTEQVLPMLRFVQKRGNSTVYEWRTGTEPSVVERPHLEELPEQVAEDAWDGIDFGVEAVSEGTDSGISAEAAGWDGIIFPESDSKDPGGDGWDGIDDAVALQITVLEAGTQAPEGVARGPDALTLLEYTETRNQFLDELMELEIFLAQRAVELSEEADVLSVSQFQLAPAILQGQTKEKMVTMVSVLEDLIGKLTSLQLQHLFMILASPRYVDRVTEFLQQKLKQSQLLALKKELMVQKQQEALEEQAALEPKLDLLLEKTKELQKLIEADISKRYSGRPVNLMGTSL
In the case of B2, the “FIP200 interaction compared with C53 wild type (in words)” value [1] is reported as “stronger interaction”.

B3: C53^cAIM: text label without species: HsC53^cAIM with GABARAP (ITC, beads), AtC53^cAIM with GST-ATG8 (protein)
chain: MEDHQHVPIDIQTSKLLDWLVDRRHCSLKWQSLVLTIREKINAAIQDMPESEEIAQLLSGSYIHYFHCLRILDLLKGTEASTKNIFGRYSSQRMKDWQEIIALYEKDNTYLVELSSLLVRNVNYEIPSLKKQIAKCQQLQQEYSRKEEECQAGAAEMREQFYHSCKQYGITGENVRGELLALVKDLPSQLAEIGAAAQQSLGEAIDVYQASVGFVCESPTEQVLPMLRFVQKRGNSTVYEWRTGTEPSVVERPHLEELPEQVAEDAWDGIDFGVEAVSEGTDSGISAEAAGWDGIIFPESDSKDPGGDGWDGIDDAVALQITVLEAGTQAPEGVARGPDALTLLEYTETRNQFLDELMELEIFLAQRAVELSEEADVLSVSQFQLAPAILQGQTKEKMVTMVSVLEDLIGKLTSLQLQHLFMILASPRYVDRVTEFLQQKLKQSQLLALKKELMVQKQQEALEEQAALEPKLDLLLEKTKELQKLIEADISKRYSGRPVNLMGTSL
B3 was tested, and the “Recruited more efficiently to GST-ATG8 than the respective C53 wild-type protein” value (GST-ATG8A) was 22%, the “Recruited more efficiently to GST-GABARAP than the respective C53 wild-type protein” value (GST-GABARAP) was 35% and the Kd (GABARAP) was 11.2 µM.

B4: GABARAP: human ATG8 isoform GABARAP, used at 100 µM as competitor (protein)
chain: MKFVYKEEHPFEKRRSEGEKIRKKYPDRVPVIVEKAPKARIGDLDKKKYLVPSDLTVGQFYFLIRKRIHLRAEDALFFFVNNVIPPTSATMGQLYQEHHEEDFFLYIAYSDESVYGL
modifications: left off: GST, N-terminal, kept
B4 was tested, and the “Competition of the HsC53-HsUFM1 interaction (in words)” value [2] was “able to disrupt”.
